B1: GST-RbABC, Rb fusion protein encoding amino acids 379-928 (A/B pocket region and COOH-terminal domain) (other, UniProt P06400 379-928, looked up)
chain: MNTIQQLMMILNSASDQPSENLISYFNNCTVNPKESILKRVKDIGYIFKEKFAKAVGQGCVEIGSQRYKLGVRLYYRVMESMLKSEEERLSIQNFSKLLNDNIFHMSLLACALEVVMATYSRSTSQNLDSGTDLSFPWILNVLNLKAFDFYKVIESFIKAEGNLTREMIKHLERCEHRIMESLAWLSDSPLFDLIKQSKDREGPTDHLESACPLNLPLQNNHTAADMYLSPVRSPKKKGSTTRVNSTANAETQATSAFQTQKPLKSTSLSLFYKKVYRLAYLRLNTLCERLLSEHPELEHIIWTLFQHTLQNEYELMRDRHLDQIMMCSMYGICKVKNIDLKFKIIVTAYKDLPHAVQETFKRVLIKEEEYDSIIVFYNSVFMQRLKTNILQYASTRPPTLSPIPHIPRSPYKFPSSPLRIPGGNIYISPLKSPYKISEGLPTPTKMTPRSRILVSIGESFGTSEKFQKINQMVCNSDRVLKRSAEGSNPPKPLKKLRFDIEGSDEADGSKHLPGESKFQQKLAEMTSTRTRMQKQKMNDSMDTSNKEEK
notes: range 379-928; GST fusion prepared like the Rak fusions; also called RbABC fusion protein; Rb-GST fusion protein; not shown: Glutathione S-transferase encoded by the pGEX-4T plasmid (Pharmacia)
B2: GST-RbC, Rb fusion protein encoding amino acids 780-928 (COOH-terminal domain only) (other, UniProt P06400 780-928, looked up)
chain: SPIPHIPRSPYKFPSSPLRIPGGNIYISPLKSPYKISEGLPTPTKMTPRSRILVSIGESFGTSEKFQKINQMVCNSDRVLKRSAEGSNPPKPLKKLRFDIEGSDEADGSKHLPGESKFQQKLAEMTSTRTRMQKQKMNDSMDTSNKEEK
notes: range 780-928; GST fusion prepared like the Rak fusions; also called RbC protein; Rb-GST fusion protein; not shown: Glutathione S-transferase encoded by the pGEX-4T plasmid (Pharmacia)

Target: T1, Src protein (p60^src), in vitro translated (UniProt P12931 2-536, limits assumed)
T1 construct: also called c-Src
Assay: in vitro translated Src on Rb-GST fusion proteins; data not shown
Experimental: The same procedure was followed for Rb in vitro binding assays, except that the Rb-GST fusion proteins were incubated in the in vitro translated forms of Rak in NP-40 buffer containing 0.5% fraction V bovine serum albumin (Boehringer Mannheim). After three washes with the same buffer, bound proteins were analyzed by SDS-PAGE and detected by autoradiography. Rak was in vitro translated using the TnT-coupled transcription/translation system (Promega) with 2 ug of the pAlt-Rak plasmid. The Rak (1–152) construct was prepared by digesting the pAlt-Rak plasmid with EcoRI to obtain the 5' EcoRI fragment of Rak.
An in vitro binding reaction was then used to further identify the essential components for the Rak-Rb interaction. In vitro translated Rak was incubated with two Rb-GST fusion proteins, where one encoded amino acids 379–928, spanning the A/B pocket and carboxy-terminus (RbABC), while the other fusion protein encoded amino acids 780–928, and represented only the carboxy-terminus (RbC). The in vitro translated full-length Rak protein bound efficiently to the RbABC fusion protein, and approximately 5-fold less to the RbC protein (FIG. 5B, upper panel). […] As a control, the Src protein was in vitro translated and subjected to the same binding reaction, and no binding of Src to any portion of Rb was detected (data not shown).

Binder | binding result
B1 | no binding
B2 | no binding
